Laboratory results taken from the supplement of paper PMC9112550, “Optimization of the antimicrobial peptide Bac7 by deep mutational scanning” (BMC Biology, 2022).

test system: Escherichia coli TOP10; experiment: shrunken log2 fold change of peptide-encoding DNA abundance (4.5 h post-induction vs induction); higher = less antimicrobial activity (less host growth inhibition); conditions: time post-induction: 4.5 h; library: site-saturation at positions 5, 18, 19, 20
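Also: peptides expressed intracellularly from a pBAD plasmid library in pooled LB shake-flask culture, induced with 0.3% L-arabinose, DNA abundance read by NGS, three biological replicates, DESeq2 with apeglm shrinkage.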

| Sequence | shrunken log2 fold change |
| --- | --- |
| RRIRERPPRLPRPRPRPSMHPRP | -0.451 |
| RRIRGRPPRLPRPRPRPVSEPRP | 0.797 |
| RRIRDRPPRLPRPRPRPTNCPRP | -0.0515 |
| RRIRQRPPRLPRPRPRPHGRPRP | -0.0154 |
| RRIRGRPPRLPRPRPRPQVTPRP | 0.0826 |
| RRIRKRPPRLPRPRPRPYEVPRP | -0.205 |
| RRIRQRPPRLPRPRPRPERQPRP | -0.0407 |
| RRIRTRPPRLPRPRPRPRKYPRP | -0.809 |
| RRIRVRPPRLPRPRPRPKSCPRP | -0.113 |
| RRIRHRPPRLPRPRPRPPWVPRP | -0.101 |
| RRIRSRPPRLPRPRPRPKGHPRP | -0.000921 |
| RRIRGRPPRLPRPRPRPETFPRP | 1.08 |
| RRIRFRPPRLPRPRPRPISQPRP | -0.588 |
| RRIRMRPPRLPRPRPRPICHPRP | 0.0206 |
| RRIRARPPRLPRPRPRPAMSPRP | 0.43 |
| RRIRDRPPRLPRPRPRPVMHPRP | -0.112 |
| RRIRCRPPRLPRPRPRPWSRPRP | -0.391 |
| RRIRIRPPRLPRPRPRPWWFPRP | -0.0772 |
| RRIRCRPPRLPRPRPRPSIYPRP | -0.713 |
| RRIRIRPPRLPRPRPRPFFPPRP | -0.264 |
| RRIRWRPPRLPRPRPRPESHPRP | 0.189 |
| RRIRLRPPRLPRPRPRPPTCPRP | 0.192 |
| RRIRVRPPRLPRPRPRPQQNPRP | -0.112 |
| RRIRDRPPRLPRPRPRPYGCPRP | 0.141 |
| RRIRIRPPRLPRPRPRPMLAPRP | 0.0524 |

| Sequence | shrunken log2 fold change |
| --- | --- |
| RRIRTRPPRLPRPRPRPDDEPRP | 0.0101 |
| RRIRARPPRLPRPRPRPIPIPRP | 0.354 |
| RRIRQRPPRLPRPRPRPSFQPRP | -0.467 |
| RRIRWRPPRLPRPRPRPTYLPRP | 0.0592 |
| RRIRLRPPRLPRPRPRPFDTPRP | -0.167 |
| RRIRRRPPRLPRPRPRPCMFPRP | -0.0745 |
| RRIRDRPPRLPRPRPRPMIFPRP | 0.0749 |
| RRIRFRPPRLPRPRPRPYAEPRP | -0.823 |
| RRIRTRPPRLPRPRPRPDVEPRP | 0.053 |
| RRIRCRPPRLPRPRPRPEPFPRP | 0.0621 |
| RRIRARPPRLPRPRPRPAELPRP | 0.426 |
| RRIRGRPPRLPRPRPRPEIMPRP | 1.33 |
| RRIRCRPPRLPRPRPRPEEQPRP | -0.0372 |
| RRIRARPPRLPRPRPRPFGTPRP | -0.194 |
| RRIRMRPPRLPRPRPRPKKFPRP | 0.358 |
| RRIRYRPPRLPRPRPRPILIPRP | -0.256 |
| RRIRIRPPRLPRPRPRPVYQPRP | -0.649 |
| RRIRHRPPRLPRPRPRPCRVPRP | -0.242 |
| RRIRPRPPRLPRPRPRPMSLPRP | -0.769 |
| RRIRLRPPRLPRPRPRPTQMPRP | 0.333 |
| RRIRARPPRLPRPRPRPNTRPRP | 0.12 |
| RRIRIRPPRLPRPRPRPPKSPRP | -0.0284 |
| RRIRARPPRLPRPRPRPLRHPRP | 0.619 |
| RRIRERPPRLPRPRPRPALIPRP | 0.129 |
| RRIRWRPPRLPRPRPRPIEDPRP | -0.00101 |

| Sequence | shrunken log2 fold change |
| --- | --- |
| RRIRWRPPRLPRPRPRPMNHPRP | -0.426 |
| RRIRGRPPRLPRPRPRPRQIPRP | 0.684 |
| RRIRGRPPRLPRPRPRPMQHPRP | 1.24 |
| RRIRIRPPRLPRPRPRPHEGPRP | -0.0113 |
| RRIRFRPPRLPRPRPRPARTPRP | 0.332 |
| RRIRFRPPRLPRPRPRPSQLPRP | -0.462 |
| RRIRYRPPRLPRPRPRPTIEPRP | -0.391 |
| RRIRGRPPRLPRPRPRPFWEPRP | 0.577 |
| RRIRPRPPRLPRPRPRPSWNPRP | -0.158 |
| RRIRERPPRLPRPRPRPFWPPRP | 0.0458 |
| RRIRVRPPRLPRPRPRPEGHPRP | -0.0324 |
| RRIRYRPPRLPRPRPRPIWDPRP | -0.13 |
| RRIRSRPPRLPRPRPRPRIHPRP | -0.323 |
| RRIRPRPPRLPRPRPRPEMHPRP | 0.395 |
| RRIRERPPRLPRPRPRPFVCPRP | -0.582 |
| RRIRMRPPRLPRPRPRPDSVPRP | -0.045 |
| RRIRKRPPRLPRPRPRPPQEPRP | 0.0788 |
| RRIRQRPPRLPRPRPRPGWVPRP | -0.124 |
| RRIRSRPPRLPRPRPRPSYCPRP | -1.07 |
| RRIRERPPRLPRPRPRPMLAPRP | 0.193 |
| RRIRSRPPRLPRPRPRPNEIPRP | -0.12 |
| RRIRGRPPRLPRPRPRPTFYPRP | 0.264 |
| RRIRERPPRLPRPRPRPGHYPRP | -0.121 |
| RRIRERPPRLPRPRPRPMMIPRP | -0.251 |
| RRIRTRPPRLPRPRPRPHQIPRP | 0.269 |
